Source: patent US20240067734A1

Target: di muNKG2D ECD Fc avi (murine)
Assay: ELISA; biotinylated antigen on streptavidin plate

Chain of di muNKG2D ECD Fc avi (murine) (chain, as listed by the source limits assumed): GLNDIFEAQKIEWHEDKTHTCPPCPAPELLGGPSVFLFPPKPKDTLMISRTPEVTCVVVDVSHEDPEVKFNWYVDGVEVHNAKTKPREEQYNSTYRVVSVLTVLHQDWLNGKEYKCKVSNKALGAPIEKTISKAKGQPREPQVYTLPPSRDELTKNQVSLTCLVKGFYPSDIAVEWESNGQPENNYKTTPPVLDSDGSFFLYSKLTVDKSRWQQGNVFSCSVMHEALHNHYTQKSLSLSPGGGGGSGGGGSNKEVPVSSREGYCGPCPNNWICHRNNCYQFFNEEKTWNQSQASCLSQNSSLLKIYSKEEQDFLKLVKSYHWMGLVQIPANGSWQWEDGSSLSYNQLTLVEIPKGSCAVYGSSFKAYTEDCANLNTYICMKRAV

B1: anti-NKG2D antibody clone 001 (antibody, V domains shown)
VH: QQLEQSGGGLVTPGGSLKLCCIGSGFDFNTYWMTWVRQAPGKGLEWIGCIHGGSSGSTYYASWVNGRFTLSRDIDQSTGCLQVNSLTAADTAMYYCARPGYRSWSKTFDLWGQGTMVTVSS
VL: DIQMTQSPSSLSASVGDRVTITCRASQDISESLNWYQQKPGKAPKLLIYAASSLQSGVPSRFSGSGSGTDYTLTISSLQPEDFATYYCQQANSFPLTFGGGTKVEIK
B1 showed an OD max of 0.2 OD.
